Experimental data: patent publication US8986682B2, “Method to increase the absorption of unsaturated fatty acids by human infants” (Swedish Orphan Biovitrum AB (publ), priority 2010, dated 2015)
Where two headings read alike, the source gives them in different places.

Legend:
patients = conditions: cited from earlier work
[1] = Specific activity with PNPB substrate, sodium cholate as bile-salt activator; type: biochemical; conditions: 20 mM sodium cholate activation solution, 27° C., after HA-HPLC and SE-HPLC purification
Experimental: Differences in functional properties are observed between rhBSSL-CHO and BSSL-MAM and from rhBSSL-OVI. The specific activity of rhBSSL-CHO is observed to be higher than that of the other forms of BSSL. The specific activities of BSSL-MAM and rhBSSL-OVI are only 80% of that of rhBSSL-CHO based on mass. Each sample is specifically purified by HA-HPLC and SE-HPLC before determination of specific activity. Specific activity is determined using 4-nitrophenyl ester butyric acid (PNPB) as a substrate for BSSL, and detection of the release of 4-nitrophenol. Briefly, a dilution series of rhBSSL (for example, from 20 to 160 ng activity/mL) is prepared in PBS with 0.1% BSA. 200 μl of these rhBSSL solutions is added to 25 μl of an activation solution containing 20 mM sodium cholate (as bile-salt activator) in PBS with 0.1% BSA. These solutions are preincubated in a spectrophotometer at 27° C. for 5 minutes. Just before measuring, 25 μl of a well-mixed substrate solution containing 5 mM PNPB in PBS-Tween is added. The formation of 4-nitrophenol can be detected by its absorbance at 400 nm and the increase in absorbance is measured during 90 seconds. The active amount of BSSL is determined using a standard curve of an rhBSSL reference standard.

kittens = conditions: 0.1 mg/mL in kitten-formula mixed with cow milk, 5 days; cited from earlier work
[2] = tested on: CF patients (aged 12 to 39 years) with PI; conditions: single dosing of 0.2 g or 1 g as complement to 25% of regular Creon dosing; cited from earlier work

agalsidase alfa: recombinant human alpha-galactosidase A produced in a continuous line of human fibroblasts
Patients with presence of IgG (patients; in vivo): 55%

agalsidase beta: recombinant human alpha-galactosidase A produced in CHO cells
Patients with presence of IgG (patients; treated patients): almost all patients

B1: BSSL-MAM: native human milk bile-salt-stimulated lipase (protein, UniProt P19835 21-753, looked up)
Bile salt-activated lipase: AKLGAVYTEGGFVEGVNKKLGLLGDSVDIFKGIPFAAPTKALENPQPHPGWQGTLKAKNFKKRCLQATITQDSTYGDEDCLYLNIWVPQGRKQVSRDLPVMIWIYGGAFLMGSGHGANFLNNYLYDGEEIATRGNVIVVTFNYRVGPLGFLSTGDANLPGNYGLRDQHMAIAWVKRNIAAFGGDPNNITLFGESAGGASVSLQTLSPYNKGLIRRAISQSGVALSPWVIQKNPLFWAKKVAEKVGCPVGDAARMAQCLKVTDPRALTLAYKVPLAGLEYPMLHYVGFVPVIDGDFIPADPINLYANAADIDYIAGTNNMDGHIFASIDMPAINKGNKKVTEEDFYKLVSEFTITKGLRGAKTTFDVYTESWAQDPSQENKKKTVVDFETDVLFLVPTEIALAQHRANAKSAKTYAYLFSHPSRMPVYPKWVGADHADDIQYVFGKPFATPTGYRPQDRTVSKAMIAYWTNFAKTGDPNMGDSAVPTHWEPYTTENSGYLEITKKMGSSSMKRSLRTNFLRYWTLTYLALPTVTDQEATPVPPTGDSEATPVPPTGDSETAPVPPTGDSGAPPVPPTGDSGAPPVPPTGDSGAPPVPPTGDSGAPPVPPTGDSGAPPVPPTGDSGAPPVPPTGDSGAPPVPPTGDSGAPPVPPTGDAGPPPVPPTGDSGAPPVPPTGDSGAPPVTPTGDSETAPVPPTGDSGAPPVPPTGDSEAAPVPPTDDSKEAQMPAVIRF
Specific activity relative to that of rhBSSL-CHO, based on mass [1]: 80%
Growth rate versus kittens fed formula alone (kittens): twice

B2: rhBSSL-OVI: recombinant human BSSL produced in / isolated from the milk of transgenic sheep (protein, UniProt P19835 21-753, looked up)
Bile salt-activated lipase: AKLGAVYTEGGFVEGVNKKLGLLGDSVDIFKGIPFAAPTKALENPQPHPGWQGTLKAKNFKKRCLQATITQDSTYGDEDCLYLNIWVPQGRKQVSRDLPVMIWIYGGAFLMGSGHGANFLNNYLYDGEEIATRGNVIVVTFNYRVGPLGFLSTGDANLPGNYGLRDQHMAIAWVKRNIAAFGGDPNNITLFGESAGGASVSLQTLSPYNKGLIRRAISQSGVALSPWVIQKNPLFWAKKVAEKVGCPVGDAARMAQCLKVTDPRALTLAYKVPLAGLEYPMLHYVGFVPVIDGDFIPADPINLYANAADIDYIAGTNNMDGHIFASIDMPAINKGNKKVTEEDFYKLVSEFTITKGLRGAKTTFDVYTESWAQDPSQENKKKTVVDFETDVLFLVPTEIALAQHRANAKSAKTYAYLFSHPSRMPVYPKWVGADHADDIQYVFGKPFATPTGYRPQDRTVSKAMIAYWTNFAKTGDPNMGDSAVPTHWEPYTTENSGYLEITKKMGSSSMKRSLRTNFLRYWTLTYLALPTVTDQEATPVPPTGDSEATPVPPTGDSETAPVPPTGDSGAPPVPPTGDSGAPPVPPTGDSGAPPVPPTGDSGAPPVPPTGDSGAPPVPPTGDSGAPPVPPTGDSGAPPVPPTGDSGAPPVPPTGDAGPPPVPPTGDSGAPPVPPTGDSGAPPVTPTGDSETAPVPPTGDSGAPPVPPTGDSEAAPVPPTDDSKEAQMPAVIRF
modifications: produced in transgenic sheep milk
Specific activity relative to that of rhBSSL-CHO, based on mass [1]: 80%
Lipid uptake versus Creon alone [2]: more rapid and efficient lipid uptake
